Measurements as given in US5801039.

How the values were obtained:
[1] = target: casein (prepared according to Hammarsten; Merck, Darmstadt, #2242)
[2] = target: T1, succinyl-L-alanyl-L-alanyl-L-prolyl-L-phenylalanyl-p-nitroanilide
T1 sequence (peptide, N-terminal succinyl; C-terminal p-nitroanilide): AAPF

B1: Bacillus lentus DSM 5483 alkaline protease (BLAP), wild type enzyme (enzyme)
chain: AQSVPWGISRVQAPAAHNRGLTGSGVKVAVLDTGISTHPDLNIRGGASFVPGEPSTQDGNGHGTHVAGTIAALNNSIGVLGVAPSAELYAVKVLGADGRGAISSIAQGLEWAGNNGMHVANLSLGSPSPSATLEQAVNSATSRGVLVVAASGNSGASSISYPARYANAMAVGATDQNNNRASFSQYGAGLDIVAPGVNVQSTYPGSTYASLNGTSMATPHVAGAAALVKQKNPSWSNVQIRNHLKNTATSLGSTNLYGSGLVNAEAATR
With B1 the Specific Activity (HPE · mg^-1) [1] was 4000 HPE · mg^-1 and the kcat · Km^-1 [2] was 297000 M⁻¹ s⁻¹.

B2: BLAP mutant F54 (S3T + V4I + R99G + A188P + V193M + V199I + L211D) (enzyme)
chain: AQTIPWGISRVQAPAAHNRGLTGSGVKVAVLDTGISTHPDLNIRGGASFVPGEPSTQDGNGHGTHVAGTIAALNNSIGVLGVAPSAELYAVKVLGADGGGAISSIAQGLEWAGNNGMHVANLSLGSPSPSATLEQAVNSATSRGVLVVAASGNSGASSISYPARYANAMAVGATDQNNNRASFSQYGPGLDIMAPGVNIQSTYPGSTYASDNGTSMATPHVAGAAALVKQKNPSWSNVQIRNHLKNTATSLGSTNLYGSGLVNAEAATR
In the case of B2, the Specific Activity (HPE · mg^-1) [1] is reported as 2510 HPE · mg^-1 and the kcat · Km^-1 [2] is reported as 1300 M⁻¹ s⁻¹.

B3: BLAP mutant F55 (S3T + V4I + S154E + A188P + V193M + V199I + L211D) (enzyme)
chain: AQTIPWGISRVQAPAAHNRGLTGSGVKVAVLDTGISTHPDLNIRGGASFVPGEPSTQDGNGHGTHVAGTIAALNNSIGVLGVAPSAELYAVKVLGADGRGAISSIAQGLEWAGNNGMHVANLSLGSPSPSATLEQAVNSATSRGVLVVAASGNEGASSISYPARYANAMAVGATDQNNNRASFSQYGPGLDIMAPGVNIQSTYPGSTYASDNGTSMATPHVAGAAALVKQKNPSWSNVQIRNHLKNTATSLGSTNLYGSGLVNAEAATR
B3 gave a Specific Activity (HPE · mg^-1) [1] of 3200 HPE · mg^-1 and a kcat · Km^-1 [2] of 2600 M⁻¹ s⁻¹.

B4: BLAP variant M131 (S3T + V4I + A188P + V193M + V199I) (enzyme)
chain: AQTIPWGISRVQAPAAHNRGLTGSGVKVAVLDTGISTHPDLNIRGGASFVPGEPSTQDGNGHGTHVAGTIAALNNSIGVLGVAPSAELYAVKVLGADGRGAISSIAQGLEWAGNNGMHVANLSLGSPSPSATLEQAVNSATSRGVLVVAASGNSGASSISYPARYANAMAVGATDQNNNRASFSQYGPGLDIMAPGVNIQSTYPGSTYASLNGTSMATPHVAGAAALVKQKNPSWSNVQIRNHLKNTATSLGSTNLYGSGLVNAEAATR
Work on B4 yielded a Specific Activity (HPE · mg^-1) [1] of 3670 HPE · mg^-1 and a kcat · Km^-1 [2] of 156000 M⁻¹ s⁻¹.

B5: BLAP mutant F11 (S3T + R99S + A188P + V193M + V199I) (enzyme)
chain: AQTVPWGISRVQAPAAHNRGLTGSGVKVAVLDTGISTHPDLNIRGGASFVPGEPSTQDGNGHGTHVAGTIAALNNSIGVLGVAPSAELYAVKVLGADGSGAISSIAQGLEWAGNNGMHVANLSLGSPSPSATLEQAVNSATSRGVLVVAASGNSGASSISYPARYANAMAVGATDQNNNRASFSQYGPGLDIMAPGVNIQSTYPGSTYASLNGTSMATPHVAGAAALVKQKNPSWSNVQIRNHLKNTATSLGSTNLYGSGLVNAEAATR
Work on B5 yielded a Specific Activity (HPE · mg^-1) [1] of 3760 HPE · mg^-1 and a kcat · Km^-1 [2] of 92000 M⁻¹ s⁻¹.

B6: BLAP mutant F43 (S3T + V4I + R99G + A188P + V193M + V199I) (enzyme)
chain: AQTIPWGISRVQAPAAHNRGLTGSGVKVAVLDTGISTHPDLNIRGGASFVPGEPSTQDGNGHGTHVAGTIAALNNSIGVLGVAPSAELYAVKVLGADGGGAISSIAQGLEWAGNNGMHVANLSLGSPSPSATLEQAVNSATSRGVLVVAASGNSGASSISYPARYANAMAVGATDQNNNRASFSQYGPGLDIMAPGVNIQSTYPGSTYASLNGTSMATPHVAGAAALVKQKNPSWSNVQIRNHLKNTATSLGSTNLYGSGLVNAEAATR
In the case of B6, the Specific Activity (HPE · mg^-1) [1] is reported as 3780 HPE · mg^-1 and the kcat · Km^-1 [2] is reported as 99000 M⁻¹ s⁻¹.

B7: BLAP mutant F44 (S3T + V4I + R99A + A188P + V193M + V199I) (enzyme)
chain: AQTIPWGISRVQAPAAHNRGLTGSGVKVAVLDTGISTHPDLNIRGGASFVPGEPSTQDGNGHGTHVAGTIAALNNSIGVLGVAPSAELYAVKVLGADGAGAISSIAQGLEWAGNNGMHVANLSLGSPSPSATLEQAVNSATSRGVLVVAASGNSGASSISYPARYANAMAVGATDQNNNRASFSQYGPGLDIMAPGVNIQSTYPGSTYASLNGTSMATPHVAGAAALVKQKNPSWSNVQIRNHLKNTATSLGSTNLYGSGLVNAEAATR
In the case of B7, the Specific Activity (HPE · mg^-1) [1] is reported as 3750 HPE · mg^-1 and the kcat · Km^-1 [2] is reported as 103000 M⁻¹ s⁻¹.

B8: BLAP mutant F45 (S3T + V4I + R99S + A188P + V193M + V199I) (enzyme)
chain: AQTIPWGISRVQAPAAHNRGLTGSGVKVAVLDTGISTHPDLNIRGGASFVPGEPSTQDGNGHGTHVAGTIAALNNSIGVLGVAPSAELYAVKVLGADGSGAISSIAQGLEWAGNNGMHVANLSLGSPSPSATLEQAVNSATSRGVLVVAASGNSGASSISYPARYANAMAVGATDQNNNRASFSQYGPGLDIMAPGVNIQSTYPGSTYASLNGTSMATPHVAGAAALVKQKNPSWSNVQIRNHLKNTATSLGSTNLYGSGLVNAEAATR
B8 was tested, and the Specific Activity (HPE · mg^-1) [1] was 3710 HPE · mg^-1 and the kcat · Km^-1 [2] was 68000 M⁻¹ s⁻¹.

B9: BLAP mutant F46 (S3T + V4I + S154E + A188P + V193M + V199I) (enzyme)
chain: AQTIPWGISRVQAPAAHNRGLTGSGVKVAVLDTGISTHPDLNIRGGASFVPGEPSTQDGNGHGTHVAGTIAALNNSIGVLGVAPSAELYAVKVLGADGRGAISSIAQGLEWAGNNGMHVANLSLGSPSPSATLEQAVNSATSRGVLVVAASGNEGASSISYPARYANAMAVGATDQNNNRASFSQYGPGLDIMAPGVNIQSTYPGSTYASLNGTSMATPHVAGAAALVKQKNPSWSNVQIRNHLKNTATSLGSTNLYGSGLVNAEAATR
B9 was tested, and the Specific Activity (HPE · mg^-1) [1] was 3180 HPE · mg^-1 and the kcat · Km^-1 [2] was 179000 M⁻¹ s⁻¹.

B10: BLAP mutant F47 (S3T + V4I + S154D + A188P + V193M + V199I) (enzyme)
chain: AQTIPWGISRVQAPAAHNRGLTGSGVKVAVLDTGISTHPDLNIRGGASFVPGEPSTQDGNGHGTHVAGTIAALNNSIGVLGVAPSAELYAVKVLGADGRGAISSIAQGLEWAGNNGMHVANLSLGSPSPSATLEQAVNSATSRGVLVVAASGNDGASSISYPARYANAMAVGATDQNNNRASFSQYGPGLDIMAPGVNIQSTYPGSTYASLNGTSMATPHVAGAAALVKQKNPSWSNVQIRNHLKNTATSLGSTNLYGSGLVNAEAATR
In the case of B10, the Specific Activity (HPE · mg^-1) [1] is reported as 3610 HPE · mg^-1 and the kcat · Km^-1 [2] is reported as 124000 M⁻¹ s⁻¹.

B11: BLAP mutant F49 (S3T + V4I + A188P + V193M + V199I + L211D) (enzyme)
chain: AQTIPWGISRVQAPAAHNRGLTGSGVKVAVLDTGISTHPDLNIRGGASFVPGEPSTQDGNGHGTHVAGTIAALNNSIGVLGVAPSAELYAVKVLGADGRGAISSIAQGLEWAGNNGMHVANLSLGSPSPSATLEQAVNSATSRGVLVVAASGNSGASSISYPARYANAMAVGATDQNNNRASFSQYGPGLDIMAPGVNIQSTYPGSTYASDNGTSMATPHVAGAAALVKQKNPSWSNVQIRNHLKNTATSLGSTNLYGSGLVNAEAATR
B11 gave a Specific Activity (HPE · mg^-1) [1] of 4610 HPE · mg^-1 and a kcat · Km^-1 [2] of 11000 M⁻¹ s⁻¹.
